This is an account of results in patent US20260092103A1 (ALBERT EINSTEIN COLLEGE OF MEDICINE, published 2026).

The assay deals with Recombinant Mtb protein GroEL2 (Mycobacterium tuberculosis, UniProt P9WPE7 1-540).
Sequence of Recombinant Mtb protein GroEL2 (P9WPE7 whole entry): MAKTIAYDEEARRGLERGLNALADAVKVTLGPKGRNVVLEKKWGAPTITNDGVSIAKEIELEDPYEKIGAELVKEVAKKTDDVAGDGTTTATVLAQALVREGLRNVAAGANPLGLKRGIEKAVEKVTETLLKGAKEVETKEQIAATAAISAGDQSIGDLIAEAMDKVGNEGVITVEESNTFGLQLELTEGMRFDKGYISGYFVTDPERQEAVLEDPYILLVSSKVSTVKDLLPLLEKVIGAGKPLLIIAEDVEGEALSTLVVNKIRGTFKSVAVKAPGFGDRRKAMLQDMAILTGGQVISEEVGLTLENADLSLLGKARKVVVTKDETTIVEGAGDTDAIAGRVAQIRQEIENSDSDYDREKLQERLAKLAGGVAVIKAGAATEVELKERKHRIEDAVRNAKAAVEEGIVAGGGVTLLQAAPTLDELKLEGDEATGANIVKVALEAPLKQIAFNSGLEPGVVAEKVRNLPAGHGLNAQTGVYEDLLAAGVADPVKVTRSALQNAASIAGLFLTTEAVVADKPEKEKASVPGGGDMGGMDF

B1: anti-GroEL2 antibody 103.11 (antibody, V domains shown)
VH: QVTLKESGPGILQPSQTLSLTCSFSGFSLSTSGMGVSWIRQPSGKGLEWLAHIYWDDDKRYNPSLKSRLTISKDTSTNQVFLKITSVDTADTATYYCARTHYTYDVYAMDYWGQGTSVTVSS
VL: QIVLTQSPAIMSASLGERVTMTCTASSSVSSSYLHWYRQKPGSSPKLWIYSASNLASGVPPRFSGSGSGTSYSLTISNMEAEDAATYYCHQYHRSPWTFGGGTKLEIKR
Usually EC50 (read off the curve) stands for the concentration at which the effect is half-maximal. As for B1, the concentration for a half-maximal effect (EC50 (read off the curve)) is around 0.02 µg/mL.
